Experiment: soluble on expression in E. coli; label from the status in PepcDB or PDB records

Sequence	soluble on expression in E. coli
MGSDKIHHHHHHMKYDVAVYIGRFQPFHNGHLSVVQRSLEVAQHLLILTGSHLASPDTRNPWSSEEREEMIRAALPANWQKRVSFIPIRDHLYSDNLWLTEIQQKVLEEAGEEARIVLVGHRKDRSSYYLDLFPQWDFLEVPRLEAVHSTAIRDAYFSGSEESNYAAALPAGVADYLTAYQQTGRYQWLRDEADYIKGYRQAWAVAPYAPTFVTTDAIVIQSGHVLVVRRKARPGKGLIALPGGYIQQDETVLEGMLRELREETGLKVPKPVLQGSIVENRVFDAPQRSQRGRIITHAFCIHLKPGPLPSVRGGDDAEKAWWMSLADLYAHEDQFFEDHFQIIQHFVSRT	not soluble
GAMDPMIIRGIRGARINNEIFNLGLKFQILNADVVATKKHVLHAINQAKTKKPIAKSFWMEILVRASGQRQIHEAIKIIGAKDGNVCLICEDEETFRKIYELIGGEIDDSVLEINEDKERLIREIFKIRGFGNVVERVLEKIALIELKKE	soluble
MTKVIAITGKGGTGKTAVAALLIRSLSKKGQFILAVDADADTNLPETLGCENVKTIGDAKEFLQAEITKPRPDNPDMNKESVLQSKVYEIIEEMPGYDLLVMGRPEGSGCYCYVNNLLRGIMDKLVKNYDLVVIDAEAGLEHFSRKIIRDIDDLIVVTDASRRGFRTAERIHELVNELESNIGSIHVIANKVTDANREKLVKLAEELKLNLIGMIPLDPKIEEMDIKGIPLFEIPDDSVAAVEIENIVKKLGF	not soluble
MGTMVFVNFPVADVQRSTAFYEKLGFKKNEEFSTEEASSMMWDDQFWIMLLNHDFYGKFIQEKQIIDAQTTSGALISFSLESAEAVKQFGETAKANGGNCYRVDMGIPEEQMYGLEVQDLDGNSLEPVWMKM	not soluble
SNAMVQAQTRDQIVAAADELFYRQGFAQTSFVDISAAVGISRGNFYYHFKTKDEILAEVIRLRLARTAQMLADWQGTGDSPRARIASFIDLMIMNRAKITRYGCPVGSLCTELSKLDHAAQGQANGLFTLFRDWLQRQFAEAGCTTEAPALAMHLLARSQGAATLAQSFHDEGFLRSEVADMHRWLDNTLPMTT	soluble
MGSDKIHHHHHHMSDKTDSSQGKSEPESSENNNDKTSVDNSVKSPLTIAISKNTKILALFAIACTLAVSLVSELTKDRIKVQEQQQLLRTLHSIIEPSRYDNDIANDCIMMSAPELGSNKVKTAYIARKAGQVVAVAITSTAPQGYNGNIDFIMAINNDGSVSGVRVLKHQETPGLGDKIEIRKSDWIKSFTGKRILSEDDSRWAVTKDNGMFDQFTGATITPRAVVKGVKSTLNYFNQHKGSLIPRPNACGEALSTTKSISPISEAANEQ	not soluble
MEKKKVAEWLAQGSIAVPKLLLGHYKQLGLGEGELVLLLHMQSFFEEGVLFPTPAELAERMTVSAAECMEMVRRLLQKGMIAIEEHTDEQGIRNEKYTLEPLWEKLVHHLYTQAAQQGELGRQEEEES	soluble
MTNFQRARSEEQRAVRRQAILDTTAAMLEEMPVGEVSLNELSRRVGLAKSNVLRYFESREAILLELLDRAWQQWVADLPALVHAGVDQGAPVSRRAEQFAAVIAASLAGRQVLCDLLSAQAGVLEHNVSPQVAARYKRAAVANVADIAALAHQHLPELGASAPQLTAVMIMAVGAVWTHARPSPAMLSAYEADPSLTAFKLDFVTTLQEMLATLTAGTIARESA	not soluble
MNDVSKASLPKAIFLMGPTASGKTALAIELRKVLPVELISVDSALIYRGMDIGTAKPNADELKAAPHRLLDIRDPSQAYSAADFRRDALAQMAEITAAGRIPLLVGGTMLYFKALLEGLSPLPSADPEVRSRIEQQAAELGWEALHQQLQEIDPVAAARIHPNDPQRLSRALEVFFISGKTLTELTQTSGDALPYQVHQFAIAPASRELLHQRIELRFHQMLASGFEAEVRALFARGDLHTDLPSIRCVGYRQMWSYIEGEISYDEMVYRGVCATRQLAKRQMTWLRGWEGVRWLDSENPDRARKEVLQVVGAIADMAGDPLEHHHHHH	not soluble
MILFPQNEDTVMSEMVAFRQGTSMPSRETILHYVVETVNQITELEPALHLLPWSGVNSAIYEQRFAQCYDEGLCAAQTSAPNVPQGILPSTDWAQGIGLLCFAAGYMSAGERPLTHNQLCDFVKQAAVGLSPIEGEAASGFSTVRSIALPVFRRLQRDGHASRVLLLQTLLHLVAWKSASQYARQQAQRLLWMGGILGEGGEHSLLVLDKALREEAVGEKSLPALLIFTSFLAHFPAGPVFID	not soluble
SEKNPPDDTGPVHVPLGHIVANEKWRGSQLAQEMQGKIKLIFEDGLTPDFYLSNRCCILYVTEADLVAGNGYRKRLVRVRNSNNLKGIVVVEKTRMSEQYFPALQKFTVLDLGMVLLPVASQMEASCLVIQLVQEQTKEPSKNPLLGKKRALLLSEPSLLRTVQQIPGVGKVKAPLLLQKFPSIQQLSNASIGELEQVVGQAVAQQIHAFFTQPR	soluble
MSETIEIDELVFSVKRSTRRRTVGVTVERDKSLVAHLPQGVALDVATRLIASKLLWVHQKLAEHGETARDDVFRIPEFVDGEGFHLLGKHYRLKLVDVPKNVTGVPSVRFEGDRILLRREQAASGGKRIEEYYTRAAHPYLNETVQRWKRIVGVEPGRFVQVMDLGYRWGSCSEDGTLNFHWRTMQLPPRIIEYVVVHELVHIKVPNHSEKFWKMIGSVMPDYESRKAWLKQKGGEL	soluble
MAHHHHHHMTSPMLMAAENFCFTPQSHFMVKTPKSERAHQCSKLYNEAFVVSNRTGLRSILRANESGRSYLNGGGIIARVWALEEALKAFFNLRKKKFVWGCDQSMWALLLIWSITRPENIKPALLVRRGLISLDYETRYFLYPSKTMVMSGMILHFAGPVHVWKRTLPQYLSEINWYRALSNSSPKREASIRLLKNSTVEMYTFWGSRKDAKLSTVCPISNISDPSWLSGQLKK	soluble
MGHHHHHHGGHMSLRSYLGSISTSKTEVNSMKMHVLKLLIPTMALLLSACASLPPELGNPDDKSVVTQYSAWLERDPATQSPVRMGGVVANISNQKDRTRVELVNLPIDSAGRPNIHQEPQGRFVAYVPGFLDPITYGEGRLLTLYGTTAPSEQGKVGDYEHTYPVMNAQGYHLWRVEERVEVDDIGPYMFPCRGFYCWPRTMPERDGKIIQEVKEGGS	not soluble
MGSSHHHHHHGGTGENLYFQGGSGLRQFIVPVRQTTQRAGLATPPLFGVQKCYVNMNRSVQTRWEIDSQTASQKRTEYDFDKEQWMKQMRFASMDCIMDPDITPIRYTSVAGVKKAFRRFVTMRKLMDRRPDFDPVQLKELFIHFKTLSHEKSPDCFKTLQRITTHGEADRILKEIKGRMNEDFAKKSWRSLKQQGAKSTYEMEVDSFDLVTCYMGQMSQEDWLQITYRCEFRQRESKEYDWETMMEYPVFEVRLGDGVKAPNTHPFIVVGVLKKDGTRYGKDSQDAADLRKQFDRTGRWF	not soluble
MAHHHHHHMSGVNAWGRMHTPAKQSQFTLDMFEEWKAKQNEDIAQRGADRDPAVEEEHNRYMLRQNLNAYVCYKELDRYTTCLEDKRLIRRRDDEDGARGGGTGVSLASSFEINTRNKVNEKLCRATHNTYVSCMSSQKNQEVVLQSASLEPHCTERRAKLFRCLRENQVSEAQTNTPQCTDTYRSLLRCGLNHLWNHYWREITKFSDTDEFHLYELSRDDNKKQAYLRALTTSEAQRQSHLREARDTMLGYYLDPKAAQKGDS	not soluble
MNFPISTIRIGGWVVVAKNPDDIVAKFYFAKKKLIWEFLFGEPETNTLRLKRKIEIQWNDVSSFEESISSRDETGILKIELKKRPTFFIETNPQAGKHTQWKQLDHDFTGDHASNYRRHTLHFPPGVLQKNLEKLVTDSFWSKLYEVPFPVHESRYFDSGFENNSSRNSHSHTVGFNVNNGPQHHFSQGIGGVGVGEGNFSMANGGWQRNSYSPVNSLNYNTANEFFGMQATPPSSQVVNEHYNTQNDFTGSQFGYHMNQDEIQKILESQAYAVPDTQTKLMSSAMNNVPKYPQAGSCLESMLFWYEHRRRFQQ	soluble
DRKQQERELTETNSVLSSVLDNMPVGILIEDADRTITTANKKLLDILDVSLTPSGLIGCEYAEIAETLKTQFADPDQFNETVNKIHSTRDAVFDEELLMADGRILARSYVSYSLPDGTGNIWLYRDIT	not soluble
MNGMCWIASYPKAGGHWLRCMLTSYVTGEPVETWPGIQAGVPHLEGLLRDGEAPSADPDEQVLLATHFTADRPVLRFYRESTAKVVCLIRNPRDAMLSLMRMKGIPPEDVEACRKIAETFIADEGFSSVRIWAGEGSWPENIRSWTDSVHESFPNAAVLAVRYEDLRKDPEGELWKVVDFLELGGRDGVADAVANCTLERMREMEERSKLLGLETTGLMTRGGKQLPFVGKGGQRKSLKFMGDDIEKAYADLLHGETDFAHYARLYGYAE	soluble
MGSDKIHHHHHHVKQRVAVIGAGPGGLACAMLLAGRGIDVTVYEKQPIVGGRTSRVQVGDYQFDRGPTFLNMPHILENLFTSIDLDMKDYLDLKALDPMYTLYFNGGKDHFTMTTDRDRMKQTIEQHFPGNGEGYDRFMAEQALKLAKLMPILQTKHDKLTDYLSPRVITALPRLSLGRSLYDVLSDYFTSEELKYAFTFQAKYLGMSAWECPGGFSILSYMEHAYGVHHPIGGMNQIPEAMKRAVEELGGTVHLNTGISQLILDGTTATGVILESGEHVLYDDVVVGADFAHAMNHLVPEGVLKKWSRPKIDRKKFSCSTFMLYLGVNKSFDAPHHTIYFADDYEKNVREMTQTLELSDDFSFYVQNPSIIDSTLAPEGKSSLYVLVPVPNNYSELDWAIEGPKLRRRVLDALEHRSPYTGVEAAIEVEEMFTPDDWEAMGVHQGATFNLGHQLTQMMYFRPHNRFEELEHVYLVGGGTHPGSGLPTIFESARITADLLTSEVGVGK	not soluble
MMNTSDNHALGDFLRARRQRLDPATFGFPAGRRRTPGLRREEVAQLASISPTWYTWLEQGRGGAPSREVLERIARGLRLTTPEREHLFILAFGHPPQTRLTVTDDMTPRLQRVLDAFTIPAIIRTASWDVIAWNAPAARVLTDYSQLPLAERNVLRRLFTRPEARCTLEDWQRVGQLIVNAFRADVTRMGATKETDQLIAELSQQSVEFARFWQSHDVAGHGEGYKRINHPEMGPLDLEFTSFAVEGRPDLSLLVFNPATTESQRKIHGLLQGAGSAPEES	soluble
MVTIVWKESKGTAKSRYKARRAELIAERRSNEALARKIALKLSGCVRADKAASLGSLRCKKADECSGSICLPNVAIYAAGYRKSKQLTAR	not soluble
MGSSHHHHHHSSGLVPRGSHMKARELDVPGAWEITPTIHVDSRGLFFEWLTDHGFRAFAGHSLDVRQVNCSVSSAGVLRGLHFAQLPPSQAKYVTCVSGSVFDVVVDIREGSPTFGRWDSVLLDDQDRRTIYVSEGLAHGFLALQDNSTVMYLCSAEYNPQREHTICATDPTLAVDWPLVDGAAPSLSDRDAAAPSFEDVRASGLLPRWEQTQRFIGEMRGTGSV	soluble
ADQLLRKKRRIFIHSVGAGTINALLDCLLEDEVISQEDMNKVRDENDTVMDKARVLIDLVTGKGPKSCCKFIKHLCEEDPQLASKMGLH	soluble
MDMNFDLYMNGVVEQARNEIESAGYEQLTTAEDVDKVLKQDGTTLVMINSVCGCAGGIARPAASHALHYDVLPDRLVTVFAGQDKEATQRAREYFEGYAPSSPSFALVKDGKITEMIERHQIEGHDVMNVINQLQTLFNKYCEERLEHHHHHH	soluble
MEPKRSRLVVCAPEPSHAREFPDVAVFSGGRANASQAERLARAVGRVLADRGVTGGARVRLTMANCADGPTLVQINLQVGDTPLRAQAATAGIDDLRPALIRLDRQIVRASAQWCPRPWPDRPRRRLTTPAEALVTRRKPVVLRRATPLQAIAAMDAMDYDVHLFTDAETGEDAVVYRAGPSGLRLARQHHVFPPGWSRCRAPAGPPVPLIVNSRPTPVLTEAAAVDRAREHGLPFLFFTDQATGRGQLLYSRYDGNLGLITPTGDGVADGLA	soluble
